These results are taken from patent KR20230010676A (dated 2023).

Experiment [1] addresses SARS-CoV-2 스파이크 단백질 (SARS-CoV-2, UniProt P0DTC2 14-1273). The experiment can be described thus: cell-based or functional assay.
Experiment [2] addresses T1, SARS-CoV RBD (Sino Biological) (SARS-CoV (SARS-CoV-1), UniProt P59594 306-527).
T1 construct: domain: RBD; also called SARS-CoV-1 RBD; SARS-CoV-1 스파이크 단백질 RBD
The experiment can be described thus: ELISA, RBD coated on plate, serial dilutions of recombinant mAb. For orientation: ELISA stands for enzyme-linked immunosorbent assay.

Experiment [3] addresses T2, SARS-CoV-2 RBD (자체 생산, BetaCoV/Wuhan-Hu-1/2019 스파이크의 잔기 331 내지 550, 수탁 번호 MN908947) (SARS-CoV-2 (BetaCoV/Wuhan-Hu-1/2019), UniProt P0DTC2 331-550).
T2 construct: range 331-550; also called SARS-CoV-2 스파이크 단백질 RBD
The description is as above.

The target in experiment [4] is T1, SARS-CoV RBD (Sino Biological). Description: ELISA, RBD coated on plate.
In experiment [5] the target is T3, SARS-CoV-2 RBD (정제된, SPR) (SARS-CoV-2 (Wuhan-Hu-1), UniProt P0DTC2 331-550). Description: SPR, Biacore T200, single-cycle kinetics, antibody captured, RBD injected. Background: Surface plasmon resonance follows binding to a sensor surface in real time, without labels.
Experiment [6] has as its target T3, SARS-CoV-2 RBD (정제된, SPR). The experiment can be described thus: SPR, Biacore T200; ratio against S2E12 WT.
Experiment [7] deals with T3, SARS-CoV-2 RBD (정제된, SPR).
Experiment [8] concerns the target T2, SARS-CoV-2 RBD (자체 생산, …). The experiment can be described thus: ELISA, RBD coated on plate, serial dilutions of recombinant mAb. This is another data set of the same source.
Experiment [9] concerns the target T3, SARS-CoV-2 RBD (정제된, SPR). This is another data set of the same source.
Experiment [10] deals with T3, SARS-CoV-2 RBD (정제된, SPR). The experiment can be described thus: SPR, Biacore T200; ratio against S2E12 WT. The source holds these as a separate data set.

Residue numbers refer to the chain shown, from its start. Where two headings read alike, the source gives them in different places.

B1: S2X35 (antibody, V domains shown)
VH: QVQLVQSGAEVKKPGASVKVSCKASGYTFTNYGISWVRQAPGQGLEWMGWISAYKGNTNYAQKLQGRVTMTTDTSTSTAYMELRSLRSDDTAVYYCARPDYQVLGYDFWIGYYGMDVWGQGTTVIVSS
VL: QSVLTQPPSVSGAPGQRVTISCTGSSSNIGAGYDVHWYQQLPGTAPKLLIYGNTNRPSGVPDRFSGSKSGTSASLAITGLQAEDEADYYCQSYDSSLSGSEVVFGGGTKLTVL
notes: also called S2X35-11
What is called EC50 is the concentration giving half of the maximal effect. Turning to B1, in experiment [1], the “IC50 (neutralisation)” value was determined as 0.092 mg/L, the “IC80 (neutralisation)” value was 0.32 mg/L and the “IC90 (neutralisation)” value was 0.661 mg/L. Besides, the EC50 in experiment [2] was found to be 0.0846 mg/L. Further, in [3], the EC50 turned out to be 0.0483 mg/L.

B2: S2X16 (antibody, V domains shown)
VH: EVQLVQSGAEVKKPGASVKVSCKASGYIFTDHYMHWVRQAPGQGLEWMGWINPNSGGTNYAQKFQGRVTMTRDTSINTAYMELSRLRSDDTAVHYCARDRSRFRFFSPDFDYWGQGTLVTVSS
VL: not shown
notes: also called S2X16-11
In the case of B2, in experiment [1], the “IC50 (neutralisation)” value was determined as 0.006 mg/L, the “IC80 (neutralisation)” value was determined as 0.022 mg/L and the “IC90 (neutralisation)” value came to 0.046 mg/L. In experiment [4], the binding result is on record as “no binding”.

B3: S2X30 (antibody, V domains shown)
VH: EVQLVQSGAEVKKPGSSVKVSCKASGGTFGSYTISWVRQAPGQGLEWMGRIIPILSIPNYAQKFQGRVTFTADKSTSTAYMELSSLRSEDTAVYYCARGGGGTHAVPHYYFDSWGQGTLVTVSS
VL: EIVMMQSPATLSVSPGERATLSCRASQSVSSNLAWYQHKPGQAPRLLIYGASTRATGIPARFSGSGSGTEFTLTISSMQSEDFAVYYCQQYNNWPFTFGGGTKVEIK
notes: also called S2X30-11
Regarding B3, in [1], the “IC50 (neutralisation)” value amounted to 0.015 mg/L, the “IC80 (neutralisation)” value turned out to be 0.031 mg/L and the “IC90 (neutralisation)” value is 0.046 mg/L. Besides, the binding result in [4] is listed as “no binding”.

B4: S2E12 (antibody, V domains shown)
VH: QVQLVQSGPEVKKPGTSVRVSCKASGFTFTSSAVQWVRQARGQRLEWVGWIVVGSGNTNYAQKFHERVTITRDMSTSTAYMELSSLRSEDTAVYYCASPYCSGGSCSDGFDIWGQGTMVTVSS
VL: DIVLTQTPGTLSLSPGERATLSCRASQSVSSSYLAWYQQKPGQAPRLLIYGASSRATGIPDRFSGSGSGTDFTLTISRLEPEDFAVYYCQQYVGLTGWTFGQGTKVEIK
notes: also called S2E12 WT; S2E12 wt
One may read the Kd as the free concentration of one partner at which half of the binding sites on the other are occupied at equilibrium, for simple one-to-one binding. Low readings indicate a tighter complex, high ones a looser complex. A word on the koff: it is the rate constant with which the complex falls apart. Higher therefore signals fast dissociation. What is called kon is a measure of how fast the partners come together. Take B4: in [5], binding was put at a Kd of 0.00118 µM, the koff was 0.00233 s⁻¹ and the kon was 1.98e+06 M⁻¹ s⁻¹. Besides, in [6], the KD_WT/KD is 1. Moreover, in experiment [7], the affinity, expressed as Kd, was 0.00131 µM; the koff amounted to 0.00317 s⁻¹; the kon is 2.42e+06 M⁻¹ s⁻¹. Further, the EC50 in [8] stood at 0.0434 mg/L. In addition, in experiment [9], the Kd was 0.00228 µM.

B5: 409_11_4_v7 (antibody, V domains shown)
VH: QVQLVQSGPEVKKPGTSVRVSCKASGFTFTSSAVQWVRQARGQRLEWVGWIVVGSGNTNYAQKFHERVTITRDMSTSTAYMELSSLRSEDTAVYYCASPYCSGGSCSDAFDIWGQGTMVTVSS
VL: B4 VL
Consider B5, for which the KD/KD_WT in experiment [10] turned out to be 0.267. Also, in [5], the Kd amounted to 0.0049 µM, the koff amounted to 0.00913 s⁻¹ and the association rate constant (kon) is 1.86e+06 M⁻¹ s⁻¹.

B6: 409_11_4_v6 (antibody, V domains shown)
VH: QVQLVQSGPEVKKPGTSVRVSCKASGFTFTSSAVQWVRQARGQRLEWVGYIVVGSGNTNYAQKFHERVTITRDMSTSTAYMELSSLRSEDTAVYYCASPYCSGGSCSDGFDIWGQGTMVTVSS
VL: B4 VL
For the molecule B6, in experiment [6], the KD_WT/KD is 0.11. This molecule also registered a Kd in experiment [9] of 0.0204 µM.

B7: 409_11_4_v13 (antibody, V domains shown)
VH: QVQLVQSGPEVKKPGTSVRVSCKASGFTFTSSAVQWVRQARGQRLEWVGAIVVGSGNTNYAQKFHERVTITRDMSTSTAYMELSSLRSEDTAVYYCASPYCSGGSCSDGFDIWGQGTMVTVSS
VL: B4 VL
As for B7, in experiment [6], the KD_WT/KD came to 0.04. Moreover, in experiment [9], the Kd was determined as 0.0514 µM.

B8: 409_11_4_v4 (antibody, V domains shown)
VH: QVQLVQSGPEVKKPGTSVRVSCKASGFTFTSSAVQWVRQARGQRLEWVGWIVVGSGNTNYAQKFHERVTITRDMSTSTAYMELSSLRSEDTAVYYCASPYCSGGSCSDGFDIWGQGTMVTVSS
VL: B4 VL with W98Y
For the molecule B8, in [6], the KD_WT/KD turned out to be 0.09. The molecule further had a Kd in experiment [9] of 0.0259 µM.

B9: 409_11_4_v2 (antibody, V domains shown)
VH: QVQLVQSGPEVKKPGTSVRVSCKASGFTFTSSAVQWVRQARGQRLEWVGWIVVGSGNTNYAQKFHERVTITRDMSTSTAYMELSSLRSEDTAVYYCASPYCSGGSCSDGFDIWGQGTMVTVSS
VL: B4 VL with L47A
notes: also called S2E12-v2
For B9, the KD_WT/KD in experiment [6] stood at 2.89. The same molecule registered a Kd in [9] of 0.000788 µM.

B10: 409_11_4_v5 (antibody, V domains shown)
VH: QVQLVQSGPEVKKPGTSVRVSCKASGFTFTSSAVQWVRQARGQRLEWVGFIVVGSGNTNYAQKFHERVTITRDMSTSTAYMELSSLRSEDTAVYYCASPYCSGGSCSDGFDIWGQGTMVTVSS
VL: B4 VL
Consider B10, for which the KD/KD_WT in [10] was found to be 0.098. Also, in [5], the affinity, expressed as Kd, was 0.0133 µM; the koff amounted to 0.0358 s⁻¹; the kon came to 2.68e+06 M⁻¹ s⁻¹.

B11: 409_11_4_v12 (antibody, V domains shown)
VH: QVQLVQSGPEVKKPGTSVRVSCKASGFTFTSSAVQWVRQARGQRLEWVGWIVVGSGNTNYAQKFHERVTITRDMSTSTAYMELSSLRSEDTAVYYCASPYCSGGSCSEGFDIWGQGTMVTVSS
VL: B4 VL
Take B11: in experiment [6], the KD_WT/KD was found to be 0.05. In addition, in experiment [9], the Kd was determined as 0.0453 µM.

B12: 409_11_4_v3 (antibody, V domains shown)
VH: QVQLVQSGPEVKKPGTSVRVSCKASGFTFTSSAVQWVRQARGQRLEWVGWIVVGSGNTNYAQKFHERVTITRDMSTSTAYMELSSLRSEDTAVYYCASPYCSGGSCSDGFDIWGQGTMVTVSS
VL: B4 VL with W98F
For B12, the KD/KD_WT in experiment [10] came out at 0.1. In experiment [5], this molecule returned a dissociation constant (Kd) of 0.013 µM, a koff of 0.0153 s⁻¹ and a kon of 1.18e+06 M⁻¹ s⁻¹.

B13: S2X47 (antibody, V domains shown)
VH: QVQLQESGPGLVKPSQTLSLTCTVSGGSISSRSYYWSWIRQPAGKGLEWIGRIYTSGNTNYNPSLRSRVTISVDTSKNQFSLKLGSVTAADTAVYYCARERIIGTAHVGGWFDPWGQGTLVTVSS
VL: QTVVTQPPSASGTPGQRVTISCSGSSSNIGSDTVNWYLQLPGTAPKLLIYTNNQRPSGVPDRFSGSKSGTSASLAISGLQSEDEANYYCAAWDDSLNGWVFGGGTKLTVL
notes: also called S2X47-11
Turning to B13, in experiment [1], the “IC50 (neutralisation)” value is 0.003 mg/L, the “IC80 (neutralisation)” value was 0.012 mg/L and the “IC90 (neutralisation)” value was determined as 0.025 mg/L. Further, the binding result in experiment [4] was “no binding”. In addition, the 50% effective concentration (EC50) in experiment [3] stood at 0.092 mg/L.
